Test results taken from article PMC314469, “Protein Interaction Networks by Proteome Peptide Scanning” (PLoS Biology, 2004).
Each block holds one binder with its values, some of them ahead of it.

Tests used:
Assay in all cases: SPOT array
[1] = molecular target: T1, Boi2 SH3 (BOI2_YEAST), P39969
T1 chain: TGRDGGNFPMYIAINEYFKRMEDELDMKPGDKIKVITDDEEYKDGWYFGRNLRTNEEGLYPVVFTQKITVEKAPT

[2] = molecular target: T2, Rvs167 SH3 (RV167_YEAST), P39743
T2 chain: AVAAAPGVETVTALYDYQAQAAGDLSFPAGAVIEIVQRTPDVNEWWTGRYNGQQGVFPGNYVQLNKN

[3] = molecular target: T3, Myo5 SH3 (MYO5_YEAST), Q04439
T3 chain: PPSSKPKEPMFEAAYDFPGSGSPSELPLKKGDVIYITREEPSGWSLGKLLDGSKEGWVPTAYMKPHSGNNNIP

[4] = molecular target: Sho1 SH3 (SHO1_YEAST), P40073
Sho1 SH3 (SHO1_YEAST), P40073, sequence (P40073 295-366): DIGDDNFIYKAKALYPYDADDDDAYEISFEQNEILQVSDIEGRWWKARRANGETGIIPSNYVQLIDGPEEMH

[5] = molecular target: T4, Boi1 SH3 (BOI1_YEAST), P38041
T4 chain: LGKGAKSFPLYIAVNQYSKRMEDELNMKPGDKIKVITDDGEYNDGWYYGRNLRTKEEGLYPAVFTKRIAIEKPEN

[6] = molecular target: T5, Yfr024 SH3 (LSB3_YEAST), P43603
T5 chain: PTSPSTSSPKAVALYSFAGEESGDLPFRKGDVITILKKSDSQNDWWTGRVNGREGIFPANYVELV

[7] = molecular target: T6, Yhr016c SH3 (YSC84_YEAST), P32793
T6 chain: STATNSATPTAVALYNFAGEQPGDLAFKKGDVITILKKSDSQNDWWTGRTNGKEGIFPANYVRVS

- normalised SPOT signal, Boehringer light units (BLU); mean over the file's lines of this peptide [1]: 31.6
- normalised SPOT signal, Boehringer light units (BLU); mean over the file's lines of this peptide [2]: 46.3
- normalised SPOT signal, Boehringer light units (BLU); mean over the file's lines of this peptide [3]: 138
- normalised SPOT signal, Boehringer light units (BLU); mean over the file's lines of this peptide [4]: 4.9
- normalised SPOT signal, Boehringer light units (BLU); mean over the file's lines of this peptide [5]: 118
- normalised SPOT signal, Boehringer light units (BLU); mean over the file's lines of this peptide [6]: 17.2
- normalised SPOT signal, Boehringer light units (BLU); mean over the file's lines of this peptide [7]: 39.1
B1: YDR164C 226-239 (peptide)
chain: DTYARNNPDFPPQN

- normalised SPOT signal, Boehringer light units (BLU); mean over the file's lines of this peptide [1]: 2
- normalised SPOT signal, Boehringer light units (BLU); mean over the file's lines of this peptide [2]: 32.7
- normalised SPOT signal, Boehringer light units (BLU); mean over the file's lines of this peptide [3]: 87.3
- normalised SPOT signal, Boehringer light units (BLU); mean over the file's lines of this peptide [4]: 38.9
- normalised SPOT signal, Boehringer light units (BLU); mean over the file's lines of this peptide [5]: 40.4
- normalised SPOT signal, Boehringer light units (BLU); mean over the file's lines of this peptide [6]: 72.6
- normalised SPOT signal, Boehringer light units (BLU); mean over the file's lines of this peptide [7]: 16.2
B2: YMR072W 109-122 (peptide)
chain: EFDEKLPPKKPAGP

- normalised SPOT signal, Boehringer light units (BLU); mean over the file's lines of this peptide [1]: 17.7
- normalised SPOT signal, Boehringer light units (BLU); mean over the file's lines of this peptide [2]: 125
- normalised SPOT signal, Boehringer light units (BLU); mean over the file's lines of this peptide [3]: 587
- normalised SPOT signal, Boehringer light units (BLU); mean over the file's lines of this peptide [4]: 48.2
- normalised SPOT signal, Boehringer light units (BLU); mean over the file's lines of this peptide [5]: 108
- normalised SPOT signal, Boehringer light units (BLU); mean over the file's lines of this peptide [6]: 99
- normalised SPOT signal, Boehringer light units (BLU); mean over the file's lines of this peptide [7]: 45.9
B3: YOL093W 10-23 (peptide)
chain: EEKVKRTPPLPPVP

- normalised SPOT signal, Boehringer light units (BLU); mean over the file's lines of this peptide [1]: 24.1
- normalised SPOT signal, Boehringer light units (BLU); mean over the file's lines of this peptide [2]: 332
- normalised SPOT signal, Boehringer light units (BLU); mean over the file's lines of this peptide [3]: 2430
- normalised SPOT signal, Boehringer light units (BLU); mean over the file's lines of this peptide [4]: 134
- normalised SPOT signal, Boehringer light units (BLU); mean over the file's lines of this peptide [5]: 4240
- normalised SPOT signal, Boehringer light units (BLU); mean over the file's lines of this peptide [6]: 3740
- normalised SPOT signal, Boehringer light units (BLU); mean over the file's lines of this peptide [7]: 162
B4: YER131W 91-104 (peptide)
chain: DRKNRAPPQRPRFN

- normalised SPOT signal, Boehringer light units (BLU); mean over the file's lines of this peptide [1]: 17.3
- normalised SPOT signal, Boehringer light units (BLU); mean over the file's lines of this peptide [2]: 13.6
- normalised SPOT signal, Boehringer light units (BLU); mean over the file's lines of this peptide [3]: 756
- normalised SPOT signal, Boehringer light units (BLU); mean over the file's lines of this peptide [4]: 17.6
- normalised SPOT signal, Boehringer light units (BLU); mean over the file's lines of this peptide [5]: 40.9
- normalised SPOT signal, Boehringer light units (BLU); mean over the file's lines of this peptide [6]: 0
- normalised SPOT signal, Boehringer light units (BLU); mean over the file's lines of this peptide [7]: 2.1
B5: YDR219C 208-221 (peptide)
chain: EDLVKKPPFIPSPT

- normalised SPOT signal, Boehringer light units (BLU); mean over the file's lines of this peptide [1]: 41.9
- normalised SPOT signal, Boehringer light units (BLU); mean over the file's lines of this peptide [2]: 75.6
- normalised SPOT signal, Boehringer light units (BLU); mean over the file's lines of this peptide [3]: 182
- normalised SPOT signal, Boehringer light units (BLU); mean over the file's lines of this peptide [4]: 54.5
- normalised SPOT signal, Boehringer light units (BLU); mean over the file's lines of this peptide [5]: 65.7
- normalised SPOT signal, Boehringer light units (BLU); mean over the file's lines of this peptide [6]: 25.2
- normalised SPOT signal, Boehringer light units (BLU); mean over the file's lines of this peptide [7]: 11.8
B6: YDL195W 1179-1192 (peptide)
chain: EELARVTPLTPKEY

- normalised SPOT signal, Boehringer light units (BLU); mean over the file's lines of this peptide [1]: 23.1
- normalised SPOT signal, Boehringer light units (BLU); mean over the file's lines of this peptide [2]: 13.3
- normalised SPOT signal, Boehringer light units (BLU); mean over the file's lines of this peptide [3]: 110
- normalised SPOT signal, Boehringer light units (BLU); mean over the file's lines of this peptide [4]: 24.8
- normalised SPOT signal, Boehringer light units (BLU); mean over the file's lines of this peptide [5]: 149
- normalised SPOT signal, Boehringer light units (BLU); mean over the file's lines of this peptide [6]: 140
- normalised SPOT signal, Boehringer light units (BLU); mean over the file's lines of this peptide [7]: 30.2
B7: YGR234W 292-305 (peptide)
chain: EEQVKSNPNRPIYW

- normalised SPOT signal, Boehringer light units (BLU); mean over the file's lines of this peptide [1]: 16.3
- normalised SPOT signal, Boehringer light units (BLU); mean over the file's lines of this peptide [2]: 154
- normalised SPOT signal, Boehringer light units (BLU); mean over the file's lines of this peptide [3]: 226
- normalised SPOT signal, Boehringer light units (BLU); mean over the file's lines of this peptide [4]: 237
- normalised SPOT signal, Boehringer light units (BLU); mean over the file's lines of this peptide [5]: 804
- normalised SPOT signal, Boehringer light units (BLU); mean over the file's lines of this peptide [6]: 136
- normalised SPOT signal, Boehringer light units (BLU); mean over the file's lines of this peptide [7]: 37.2
B8: YLR247C 271-284 (peptide)
chain: DRLSKIKPFLPQSI

- normalised SPOT signal, Boehringer light units (BLU); mean over the file's lines of this peptide [1]: 34
- normalised SPOT signal, Boehringer light units (BLU); mean over the file's lines of this peptide [2]: 52.3
- normalised SPOT signal, Boehringer light units (BLU); mean over the file's lines of this peptide [3]: 176
- normalised SPOT signal, Boehringer light units (BLU); mean over the file's lines of this peptide [4]: 39.1
- normalised SPOT signal, Boehringer light units (BLU); mean over the file's lines of this peptide [5]: 57.4
- normalised SPOT signal, Boehringer light units (BLU); mean over the file's lines of this peptide [6]: 21.3
- normalised SPOT signal, Boehringer light units (BLU); mean over the file's lines of this peptide [7]: 15.7
B9: YPR008W 508-521 (peptide)
chain: DVNHRYPPMAPTTV

- normalised SPOT signal, Boehringer light units (BLU); mean over the file's lines of this peptide [1]: 37.1
- normalised SPOT signal, Boehringer light units (BLU); mean over the file's lines of this peptide [2]: 354
- normalised SPOT signal, Boehringer light units (BLU); mean over the file's lines of this peptide [3]: 261
- normalised SPOT signal, Boehringer light units (BLU); mean over the file's lines of this peptide [4]: 52.1
- normalised SPOT signal, Boehringer light units (BLU); mean over the file's lines of this peptide [5]: 13600
- normalised SPOT signal, Boehringer light units (BLU); mean over the file's lines of this peptide [6]: 2260
- normalised SPOT signal, Boehringer light units (BLU); mean over the file's lines of this peptide [7]: 177
B10: YNL165W 293-306 (peptide)
chain: DSYSRSRPTRPLGY

- normalised SPOT signal, Boehringer light units (BLU); mean over the file's lines of this peptide [1]: 28.7
- normalised SPOT signal, Boehringer light units (BLU); mean over the file's lines of this peptide [2]: 22.8
- normalised SPOT signal, Boehringer light units (BLU); mean over the file's lines of this peptide [3]: 134
- normalised SPOT signal, Boehringer light units (BLU); mean over the file's lines of this peptide [4]: 30.7
- normalised SPOT signal, Boehringer light units (BLU); mean over the file's lines of this peptide [5]: 25.7
- normalised SPOT signal, Boehringer light units (BLU); mean over the file's lines of this peptide [6]: 0
- normalised SPOT signal, Boehringer light units (BLU); mean over the file's lines of this peptide [7]: 23.2
B11: YLL021W 188-201 (peptide)
chain: EEQVKEKPNEPEGK

- normalised SPOT signal, Boehringer light units (BLU); mean over the file's lines of this peptide [1]: 10.2
- normalised SPOT signal, Boehringer light units (BLU); mean over the file's lines of this peptide [2]: 43.8
- normalised SPOT signal, Boehringer light units (BLU); mean over the file's lines of this peptide [3]: 135
- normalised SPOT signal, Boehringer light units (BLU); mean over the file's lines of this peptide [4]: 26.5
- normalised SPOT signal, Boehringer light units (BLU); mean over the file's lines of this peptide [5]: 1240
- normalised SPOT signal, Boehringer light units (BLU); mean over the file's lines of this peptide [6]: 114
- normalised SPOT signal, Boehringer light units (BLU); mean over the file's lines of this peptide [7]: 9.2
B12: YMR032W 380-393 (peptide)
chain: DSVLRQKPDKPRPI

- normalised SPOT signal, Boehringer light units (BLU); mean over the file's lines of this peptide [1]: 18.1
- normalised SPOT signal, Boehringer light units (BLU); mean over the file's lines of this peptide [2]: 682
- normalised SPOT signal, Boehringer light units (BLU); mean over the file's lines of this peptide [3]: 47.5
- normalised SPOT signal, Boehringer light units (BLU); mean over the file's lines of this peptide [4]: 12000
- normalised SPOT signal, Boehringer light units (BLU); mean over the file's lines of this peptide [5]: 106
- normalised SPOT signal, Boehringer light units (BLU); mean over the file's lines of this peptide [6]: 12300
- normalised SPOT signal, Boehringer light units (BLU); mean over the file's lines of this peptide [7]: 23200
B13: YJR090C 138-151 (peptide)
chain: DQLNRLLPNLPEEE

- normalised SPOT signal, Boehringer light units (BLU); mean over the file's lines of this peptide [1]: 4.5
- normalised SPOT signal, Boehringer light units (BLU); mean over the file's lines of this peptide [2]: 42.8
- normalised SPOT signal, Boehringer light units (BLU); mean over the file's lines of this peptide [3]: 29.4
- normalised SPOT signal, Boehringer light units (BLU); mean over the file's lines of this peptide [4]: 10.6
- normalised SPOT signal, Boehringer light units (BLU); mean over the file's lines of this peptide [5]: 114
- normalised SPOT signal, Boehringer light units (BLU); mean over the file's lines of this peptide [6]: 0
- normalised SPOT signal, Boehringer light units (BLU); mean over the file's lines of this peptide [7]: 56.7
B14: YOL027C 550-563 (peptide)
chain: EEEAKSVPPIPADQ

- normalised SPOT signal, Boehringer light units (BLU); mean over the file's lines of this peptide [1]: 6
- normalised SPOT signal, Boehringer light units (BLU); mean over the file's lines of this peptide [2]: 19.7
- normalised SPOT signal, Boehringer light units (BLU); mean over the file's lines of this peptide [3]: 154
- normalised SPOT signal, Boehringer light units (BLU); mean over the file's lines of this peptide [4]: 23.7
- normalised SPOT signal, Boehringer light units (BLU); mean over the file's lines of this peptide [5]: 75.6
- normalised SPOT signal, Boehringer light units (BLU); mean over the file's lines of this peptide [6]: 38.5
- normalised SPOT signal, Boehringer light units (BLU); mean over the file's lines of this peptide [7]: 36.2
B15: YML034W 511-524 (peptide)
chain: DYRPKSIPSPPNGI

- normalised SPOT signal, Boehringer light units (BLU); mean over the file's lines of this peptide [1]: 25.2
- normalised SPOT signal, Boehringer light units (BLU); mean over the file's lines of this peptide [2]: 55.1
- normalised SPOT signal, Boehringer light units (BLU); mean over the file's lines of this peptide [3]: 192
- normalised SPOT signal, Boehringer light units (BLU); mean over the file's lines of this peptide [4]: 397
- normalised SPOT signal, Boehringer light units (BLU); mean over the file's lines of this peptide [5]: 0
- normalised SPOT signal, Boehringer light units (BLU); mean over the file's lines of this peptide [6]: 39.2
- normalised SPOT signal, Boehringer light units (BLU); mean over the file's lines of this peptide [7]: 36.7
B16: YJR006W 304-317 (peptide)
chain: DPSDKSLPQQPFHK
